Here are results for 2 molecules from US20170360931A1.

Common to all, as to assay: cell-based or functional assay
The target of test [1] is HA of wild type A/Shanghai/1/2013 (H7N9) virus (influenza A virus A/Shanghai/1/2013 (H7N9)).
In test [2] the target is all H3N2 and H7 strains (plaque reduction assay).
In test [3] the target is HA of A/California/04/2009 (H1N1) virus (influenza A virus A/California/04/2009 (H1N1)).

B1: 042-100809-2F04 (antibody, V domains shown)
VH: EVQLVESGGGLVQPGGSLRLSCVASGFTFSTPWMTWIRQAPGKGLEWVAHIKQDGSETYYVDSVKGRFTISRDNAKNSLYLQMNSLKAEDTALYYCARMTRESSENYWGQGTLVTVSS
VL: DVVMTQSPLSLPVTLGQPASISCRSSQSLVYSDGDTFLEWFQQRPGQSPRRLIYKVSNRDSGVPDRFSGSGSGTDFTLKISRVEAEDVGLYYCMQHTHWPHTFGQGTKVEIK
For the molecule B1, the PRNT50 (plaque reduction assay) in test [1] was determined as 27 µg/mL.

B2: S6-B01 (antibody, V domains shown)
VH: QVQLVQSGAEVKKPGASVKVSCKASGYTFNSYGISWVRQAPGQGLEWMGWISAYTGDTKFAQNVQGRVTMTIDTSTSTAYMELRSLRSDDTAVYYCARHYLQGVVVVDPYSHAMDVWGQGTTVTVSS
VL: EIVLTQSPGTLSFFPGERATLSCRASQTINSRFLAWYQQKPGQAPRLLIYGASSRATGIPDRFSGRGSGTDFTLAISRLEPEDFAVYYCQLYGSSRTTFGQGTKVEIK
With B2, the results for the PRNT50 (plaque reduction assay) in test [2] and in test [3] were 3 to 6 µg/mL and above 120 µg/mL, respectively.
